Results from publication PMC10950856, “Structure of orthoreovirus RNA chaperone σNS, a component of viral replication factories” (Nature Communications, 2024).
Substitutions are numbered along the chain they refer to. In names and notes the source's numbering stands. Several values for one entry are separate records, joined by “and”; a condition that tells them apart may be missing. Equal entries are not always repeated.

B1: wildtype (WT) σNS (mammalian orthoreovirus, strain type 3 Dearing) (natural protein)
chain: MASSLRAAISKIKRDDVGQQVCPNYVMLRSSVTTKVVRNVVEYQIRTGGFFSCLAMLRPLQYAKRERLLGQRNLERISTRDILQTRDLHSLCMPTPDAPMSNHQASTMRELICSYFKVDHADGLKYIPMDERYSPSSLARLFTMGMAGLHITTEPSYKRVPIMHLAADLDCMTLALPYMITLDGDTVVPVAPTLSAEQLLDDGLKGLACMDISYGCEVDANSRPAGDQSMDSSRCINELYCEETAEAICVLKTCLVLNCMQFKLEMDDLAHNAAELDKIQMMIPFSERVFRMASSFATIDAQCFRFCVMMKDKNLKIDMRETTRLWTRSASDDSVATSSLSISLDRGRWVAADASDARLLVFPIRV
notes: σNS nonstructural protein of mammalian orthoreovirus, strain type 3 Dearing; synthesized gene in pET28; source: E. coli DE3 cells, purified (Ni-NTA, TEV cleavage, Q column, S200 SEC); not shown: His tag, N-terminal, cleaved
B2: selenomethionine (Se-Met)-substituted σNS-R6A (natural protein)
chain: B1 chain with R6A
modifications: selenomethionine in place of methionine (Se-Met-substituted; Mse 1 named)
notes: σNS nonstructural protein of mammalian orthoreovirus, strain type 3 Dearing, with R6A; synthesized gene in pET28; Octamer by SEC; helical assembly of dimers in the crystal; Residue 1 (Mse 1) is seen in the structure; also called Se-Met σNS-R6A; source: E. coli B834 cells in medium with Se-Met, purified (Ni-NTA, TEV cleavage, Q column, S200 SEC); not shown: His tag, N-terminal, cleaved
B3: σNS-R6A (native, without Se-Met substitution) (natural protein)
chain: B1 chain with R6A
notes: σNS nonstructural protein of mammalian orthoreovirus, strain type 3 Dearing, with R6A; synthesized gene in pET28; Dimer in solution (~80 kDa); The N-terminal arm is disordered in the crystal with bile acid derivatives; also called native σNS-R6A; σNS R6A mutant; source: E. coli DE3 cells, purified (Ni-NTA, TEV cleavage, Q column, S200 SEC); not shown: His tag, N-terminal, cleaved
B4: σNS-ΔN17 (σNS lacking the N-terminal 17 residues) (domain or fragment)
chain: GQQVCPNYVMLRSSVTTKVVRNVVEYQIRTGGFFSCLAMLRPLQYAKRERLLGQRNLERISTRDILQTRDLHSLCMPTPDAPMSNHQASTMRELICSYFKVDHADGLKYIPMDERYSPSSLARLFTMGMAGLHITTEPSYKRVPIMHLAADLDCMTLALPYMITLDGDTVVPVAPTLSAEQLLDDGLKGLACMDISYGCEVDANSRPAGDQSMDSSRCINELYCEETAEAICVLKTCLVLNCMQFKLEMDDLAHNAAELDKIQMMIPFSERVFRMASSFATIDAQCFRFCVMMKDKNLKIDMRETTRLWTRSASDDSVATSSLSISLDRGRWVAADASDARLLVFPIRV
notes: σNS nonstructural protein of mammalian orthoreovirus, strain type 3 Dearing, truncated by the N-terminal 17 residues; synthesized gene in pET28; Dimer in solution and in the crystal; source: E. coli DE3 cells, purified (Ni-NTA, TEV cleavage, Q column, S200 SEC); not shown: His tag, N-terminal, cleaved

Experiments:
[1] = target: the molecule itself; experiment: SEC; S200 16/60-increase column, 10 mM HEPES (pH 8.0), 150 mM NaCl, after anion-exchange chromatography; size of the oligomer from the elution volume
[2] = target: the molecule itself; experiment: not stated; in solution; the method is not named for this construct (the constructs were purified on an S200 16/60-increase column)

Protein | stoichiometry N [1] | stoichiometry N [2]
B1 | 10 and 8 | 
B2 | 8 | 
B3 | 2 | 
B4 |  | 2
